Results published in patent US11512128B2, “VEGF/DLL4 binding agents and uses thereof” (MEREO BIOPHARMA 5, INC., priority 2011, dated 2022).

T1: human VEGF165 (Homo sapiens, UniProt P15692)
T1 sequence (P15692 27-191 isoform P15692-4): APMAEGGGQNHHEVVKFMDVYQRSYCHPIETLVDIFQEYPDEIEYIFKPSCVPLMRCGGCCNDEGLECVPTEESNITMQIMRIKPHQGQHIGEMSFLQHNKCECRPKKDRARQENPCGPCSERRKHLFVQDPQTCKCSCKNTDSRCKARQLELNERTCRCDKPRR


What was measured:
human VEGF165 = molecular target: T1, human VEGF165; assay: Biacore binding affinity (KD) to human VEGF; settings: Biacore 2000, biotinylated human VEGF165 on streptavidin chip; read-out: KD hVEGF
Procedure: (§1) The KDs of parental antibodies anti-VEGF 219R45 (IgG format), anti-DLL4 21R79 (IgG format), anti-DLL4 21M18 (IgG format) and bispecific antibodies 219R45-MB-21M18 and 219R45-MB-21R79 were determined using a Biacore 2000 system from Biacore LifeSciences (GE Healthcare). Recombinant human DLL4-Fc or mouse DLL4-Fc proteins were immobilized on CM5 carboxyl chips using standard amine-based chemistry (NHS/EDC) and blocked with ethanolamine. Recombinant human VEGF165 or mouse VEGF165 were biotinylated and immobilized on streptavidin chips. The antibodies were serially diluted 2-fold from 100 nM to 0.78 nM in HBS-P (0.01M HEPES pH7.4, 0.15M NaCl, 0.005% v/v Polysorbate 20). For each antibody, all 8 dilutions were sequentially injected over a specific chip. Kinetic data were collected over time and were fit using the simultaneous global fit equation to yield affinity constants (KD values) for each bispecific antibody.

[1] = system: VEGF-induced proliferation of HUVEC cells; assay: HUVEC proliferation assay; assay type: cell-based, human; settings: hVEGF 5 ng/ml, Alamar Blue on day 7
Procedure: FIG. 3. Inhibition of VEGF-induced HUVEC proliferation by anti-VEGF/anti-DLL4 bispecific antibodies. Fluorescence intensity is read using an excitation wavelength of 530 nm and an emission wavelength of 590. 219R45-MB-21M18 (-●-); 219R45-MB-21R79 (-▴-); 219R45 (-▪-); Medium with no VEGF (-⋄-).
HUVEC cells were obtained from Lonza (Walkersville, Md.) and cultured in growth media (M199, 10% heat-inactivated FBS (HI-FBS), 50 μg/ml EGS, 1X heparin, 1 mM L-glutamine). For the HUVEC proliferation assay, a 96-well plate was pre-coated with 50 μl of 10 μg/ml rat tail collagen type I solution (collagen I in 0.02N acetic acid) and incubated at 4° C. overnight. After incubation, the plate was thoroughly aspirated to remove unbound collagen I solution and washed once with 200 μl DPBS. The HUVEC cells were removed from the surface of the growth flasks using an endothelial cell subclone reagent and centrifuged at 1200 rpm for 5 minutes at 4° C. The cells were resuspended in starvation/assay medium (M199 and 2% HI-FBS, 1× heparin, 5 U/ml heparin-glutamine) at a density of 10^5 cells/ml. The cells were seeded into the collagen-coated assay plate at 5000 cells/well, 50 ul/well. The cells were incubated for 3 hours at 37° C., washed one time, refed with 100 ul assay media, and incubated overnight at 37° C. The next day, bispecific antibodies 219R45-MB-21M18, 219R45-MB-21R79, parental antibody 219R45, or control antibody LZ1 were prepared in a mixture with human VEGF (R&D Biosystems, Minneapolis, Minn.). The antibodies were serially diluted 5-fold from […] to 0.25 nM in assay buffer in combination with hVEGF (final concentration 5 ng/ml). The mixture was pre-incubated at 37° C. for 2 hours. The medium was removed from the assay plate, and 100 μl of the antibody/hVEGF mixture was added to each well. […] The plate was read with a SpectraMax M5e Microplate reader (Molecular Devices, Sunnyvale CA) using a excitation wavelength of […] and an emission wavelength of 590 nm.

[2] = Non-GLP toxicity study in cynomolgus monkeys; assay type: in vivo; settings: after 15 weeks
Procedure: A non-GLP toxicity study in cynomolgus monkeys was initiated to evaluate and compare the toxicity profile of some of the bispecific antibodies. The animals were dosed with 0 mg/kg (control), 5 mg/kg (low dose), or 30 mg/kg (high dose) of anti-DLL4/anti-VEGF bispecific antibody (219R45-MB-21M18, 219R45-MB-21R83, or 219R45-MB-21R79) every 2 weeks via IV infusion. 3 males and 3 females were dosed in each group. After 15 weeks, mean body weights were lower in animals receiving the high dose of 219R45-MB-21R79 than in animals that received the high dose of either […] or 219R45-MB-21R83. In addition, mean serum albumin levels were lower in animals that received 219R45-MB-21R79 than in those that received either […] or 219R45-MB-21R83.

human DLL4-Fc = human DLL4-Fc (Homo sapiens, UniProt Q9NR61); assay: Biacore binding affinity (KD) to human DLL4; settings: ratio of KD values
Procedure: as §1
Several additional anti-DLL4 antibodies were identified that had binding affinities intermediate to the KDs of 21M18 and 21R79. Two of these anti-DLL4 antibodies were used to produce anti-VEGF/anti-DLL4 bispecific antibodies 219R45-MB-21R75 and 219R45-MB-21R83. Using the Biacore 2000 system as described above, the KDs of the bispecific antibodies 219R45-MB-21R75 and 219R45-MB-21R83 to human DLL4 were determined.

Chain of human DLL4-Fc (Q9NR61 27-522 limits assumed): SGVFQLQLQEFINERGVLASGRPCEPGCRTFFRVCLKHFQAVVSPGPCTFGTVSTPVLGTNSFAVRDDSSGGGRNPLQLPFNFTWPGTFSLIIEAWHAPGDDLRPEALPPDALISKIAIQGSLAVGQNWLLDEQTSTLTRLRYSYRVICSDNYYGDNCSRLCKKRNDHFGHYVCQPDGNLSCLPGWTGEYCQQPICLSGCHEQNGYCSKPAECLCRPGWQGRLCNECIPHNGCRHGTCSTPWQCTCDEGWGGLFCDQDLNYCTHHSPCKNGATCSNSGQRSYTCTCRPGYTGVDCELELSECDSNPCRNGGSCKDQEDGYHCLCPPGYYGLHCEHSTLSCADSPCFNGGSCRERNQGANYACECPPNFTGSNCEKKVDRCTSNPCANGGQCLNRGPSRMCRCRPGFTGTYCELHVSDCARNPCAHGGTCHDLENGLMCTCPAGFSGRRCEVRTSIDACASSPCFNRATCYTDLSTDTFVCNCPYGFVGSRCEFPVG

Molecule | Kd (human VEGF165) | inhibition of VEGF-induced HUVEC proliferation [1] | mean serum albumin levels ([2]; every 2 weeks IV infusion) | mean body weights ([2]; high dose 30 mg/kg every 2 weeks IV infusion) | stronger binding to human DLL4 than 219R45-MB-21M18 (human DLL4-Fc)
21M18: anti-DLL4 antibody, parental antibody (Hoey et al., 2009; U.S. Pat. No. 7,750,124) (antibody, V domains shown) VH: QVQLVQSGAEVKKPGASVKISCKASGYSFTAYYIHWVKQAPGQGLEWIGYISSYNGATNYNQKFKGRVTFTTDTSTSTAYMELRSLRSDDTAVYYCARDYDYDVGMDYWGQGTLVTVSS VL: DIVMTQSPDSLAVSLGERATISCRASESVDNYGISFMKWFQQKPGQPPKLLIYAASNQGSGVPDRFSGSGSGTDFTLTISSLQAEDVAVYYCQQSKEVPWTFGGGTKVEIK | > 100 nM | – | – | – | –
219R45-MB-21R79: anti-VEGF/anti-DLL4 monovalent/bispecific antibody, heavy chains SEQ ID NO:7 and 6, light chains SEQ ID NO:8 (antibody, 21R79 Heavy chain without predicted signal sequence; Light chain without predicted signal sequence) heavy 1: QVQLVQSGAEVKKPGASVKVSCKASGYTFTNYWMHWVRQAPGQGLEWMGDINPSNGRTSYKEKFKRRVTLSVDKSSSTAYMELSSLRSEDTAVYFCTIHYDDKYYPLMDYWGQGTLVTVSSASTKGPSVFPLAPCSRSTSESTAALGCLVKDYFPEPVTVSWNSGALTSGVHTFPAVLQSSGLYSLSSVVTVPSSNFGTQTYTCNVDHKPSNTKVDKTVERKCCVECPPCPAPPVAGPSVFLFPPKPKDTLMISRTPEVTCVVVDVSHEDPEVQFNWYVDGVEVHNAKTKPREEQFNSTFRVVSVLTVVHQDWLNGKEYKCKVSNKGLPAPIEKTISKTKGQPREPQVYTLPPSREKMTKNQVSLTCLVKGFYPSDIAVEWESNGQPENNYKTTPPMLKSDGSFFLYSKLTVDKSRWQQGNVFSCSVMHEALHNHYTQKSLSLSPGK heavy 2: QVQLVQSGAEVKKPGASVKISCKASGYSFTAYYIHWVKQAPGQGLEWIGYIANYNRATNYNQKFKGRVTFTTDTSTSTAYMELRSLRSDDTAVYYCARDYDYDVGMDYWGQGTLVTVSSASTKGPSVFPLAPCSRSTSESTAALGCLVKDYFPEPVTVSWNSGALTSGVHTFPAVLQSSGLYSLSSVVTVPSSNFGTQTYTCNVDHKPSNTKVDKTVERKCCVECPPCPAPPVAGPSVFLFPPKPKDTLMISRTPEVTCVVVDVSHEDPEVQFNWYVDGVEVHNAKTKPREEQFNSTFRVVSVLTVVHQDWLNGKEYKCKVSNKGLPAPIEKTISKTKGQPREPQVYTLPPSREEMTKNQVSLTCLVEGFYPSDIAVEWESNGQPENNYKTTPPMLDSDGSFFLYSELTVDKSRWQQGNVFSCSVMHEALHNHYTQKSLSLSPGK light: DIVMTQSPDSLAVSLGERATISCRASESVDNYGISFMKWFQQKPGQPPKLLIYAASNQGSGVPDRFSGSGSGTDFTLTISSLQAEDVAVYYCQQSKEVPWTFGGGTKVEIKRTVAAPSVIFPPSDEQLKSGTASVVCLLNNFYPREAKVQWKVDNALQSGNSQESVTEQDSKDSTYSLSSTLTLSKADYEKHKVYACEVTHQGLSSPVTKSFNRGEC | – | inhibited HUVEC proliferation | lower | lower | approximately 30 fold
219R45-MB-21M18: anti-VEGF/anti-DLL4 monovalent/bispecific antibody, heavy chains SEQ ID NO:7 and 5, light chains SEQ ID NO:8 (antibody, 21R79 Heavy chain without predicted signal sequence; 21M18 Heavy chain without predicted signal sequence; Light chain without predicted signal sequence) heavy 1: QVQLVQSGAEVKKPGASVKVSCKASGYTFTNYWMHWVRQAPGQGLEWMGDINPSNGRTSYKEKFKRRVTLSVDKSSSTAYMELSSLRSEDTAVYFCTIHYDDKYYPLMDYWGQGTLVTVSSASTKGPSVFPLAPCSRSTSESTAALGCLVKDYFPEPVTVSWNSGALTSGVHTFPAVLQSSGLYSLSSVVTVPSSNFGTQTYTCNVDHKPSNTKVDKTVERKCCVECPPCPAPPVAGPSVFLFPPKPKDTLMISRTPEVTCVVVDVSHEDPEVQFNWYVDGVEVHNAKTKPREEQFNSTFRVVSVLTVVHQDWLNGKEYKCKVSNKGLPAPIEKTISKTKGQPREPQVYTLPPSREKMTKNQVSLTCLVKGFYPSDIAVEWESNGQPENNYKTTPPMLKSDGSFFLYSKLTVDKSRWQQGNVFSCSVMHEALHNHYTQKSLSLSPGK heavy 2: QVQLVQSGAEVKKPGASVKISCKASGYSFTAYYIHWVKQAPGQGLEWIGYISSYNGATNYNQKFKGRVTFTTDTSTSTAYMELRSLRSDDTAVYYCARDYDYDVGMDYWGQGTLVTVSSASTKGPSVFPLAPCSRSTSESTAALGCLVKDYFPEPVTVSWNSGALTSGVHTFPAVLQSSGLYSLSSVVTVPSSNFGTQTYTCNVDHKPSNTKVDKTVERKCCVECPPCPAPPVAGPSVFLFPPKPKDTLMISRTPEVTCVVVDVSHEDPEVQFNWYVDGVEVHNAKTKPREEQFNSTFRVVSVLTVVHQDWLNGKEYKCKVSNKGLPAPIEKTISKTKGQPREPQVYTLPPSREEMTKNQVSLTCLVEGFYPSDIAVEWESNGQPENNYKTTPPMLDSDGSFFLYSELTVDKSRWQQGNVFSCSVMHEALHNHYTQKSLSLSPGK light: DIVMTQSPDSLAVSLGERATISCRASESVDNYGISFMKWFQQKPGQPPKLLIYAASNQGSGVPDRFSGSGSGTDFTLTISSLQAEDVAVYYCQQSKEVPWTFGGGTKVEIKRTVAAPSVIFPPSDEQLKSGTASVVCLLNNFYPREAKVQWKVDNALQSGNSQESVTEQDSKDSTYSLSSTLTLSKADYEKHKVYACEVTHQGLSSPVTKSFNRGEC | – | inhibited HUVEC proliferation | – | – | –
